Experiment: soluble on expression in E. coli; label from the status in PepcDB or PDB records

| Sequence | soluble on expression in E. coli |
| --- | --- |
| SNAMKRKVQVKNITIGEGRPKICVPIIGKNKKDIIKEAKELKDACLDIIEWRVDFFENVENIKEVKEVLYELRSYIHDIPLLFTFRSVVEGGEKLISRDYYTTLNKEISNTGLVDLIDVELFMGDEVIDEVVNFAHKKEVKVIISNHDFNKTPKKEEIVSRLCRMQELGADLPKIAVMPQNEKDVLVLLEATNEMFKIYADRPIITMSMSGMGVISRLCGEIFGSALTFGAAKSVSAPGQISFKELNSVLNLLHKSIN | soluble |
| SNAMLFCDDSKKYLKEQNINLKNEFDKDDKRVEKFSLKHQNIYFDYSKNLINDYILKSLLESAEKSSLKDKIKQMFNGAKINSTEHRAVLHTALRDLSSTPLIVDGQDIRQEVTKEKQRVKELVEKVVSGRWRGFSGKKITDIVNIGIGGSDLGPKMVVRALQPYHCTDLKVHFVSNVDADSLLQALHVVDPETTLLIIASKSFSTEETLLNSISAREWLLDHYEDEKAVANHFVAISSKLDKVKEFGIDLEHCYKMWDWVGGRYSLWSSIGMSIAFAIGYDNFEKLLAGAYSVDKHFKETEFSKNIPVIMALLASYYSCTYNSQSQALLPYDERLCYFVDYLQQADMESNGKSVNIAGETVNYQTGVVLWGGVGTNGQHAFHQLLHQGNIFIPVDFIAIATSHHNYDNHQQALLANCFAQSQALMFGQSYDMVYNELLKSGLNETQAKELAAHKVIPGNRPSTTILLDELSPYSLGALIALYEHKIFVQGVLWDINSYDQWGVELGKKLGKNILKAMNDDSSDEYQNLDDSTRQLIAKVKNK | soluble |
| SNAMNHTADNCIFCKIIDGQILCSKVYEDEHVLAFLDISQVTKGHTLVIPKVHKQDIFALTPEIASHIFSVVPKIANAIKAEFNPVGFNLLNNNGEKAGQTVFHFHLHLIPRYGENDGFGAVWKSHQNEYTMENLQNIASTIANSVK | soluble |
| SNAMNNIRLLNQNDLDSYIELMKFGHHNYEWDRYYLENVSIDRLKTILSNHTDYWNIFGAFEDDELVATCTLKQMNYVGKCHKAILENNFVKNNDEIVNRELINHIIQYAKEQNIETLMIAIASNNISAKVFFSSIGFENLAFEKNASKIGNEYFDENWLIYSTTESSD | soluble |
| SNAMNYFELFGLPIQFELDGSLLSSQFRALQKRFHPDNFATASERDRLMAVQQAAQINDAYQTLKDPLRRAEYLLSLQGIEMNAEQQTLQDPMFLMEQMELREELESVTACADPEAALVAFDTKVTAMQRHYLAQLQGQLAQSEWLAAADQIRKLKFIAKLKNEVERVEDQLLG | soluble |
| SNAMTTPIRVVVWNEFRHEKKDEQVRAIYPEGMHTVIASYLAEAGFDAATAVLDEPEHGLTDEVLDRCDVLVWWGHIAHDEVKDEVVERVHRRVLEGMGLIVLHSGHFSKIFKKLMGTTCNLKWREADEKERLWVVAPGHPIVEGIGPYIELEQEEMYGEFFDIPEPDETIFISWFEGGEVFRSGCTFTRGKGKIFYFRPGHETYPTYHHPDVLKVIANAVRWAAPVNRGEIVFGNVKPLEPIKAKQGGVTQ | soluble |
| SNANCKKIGEDSKIIIRQITDNDLELLMAWRSNPLIYKFFYIQKEPLKWEEHYSWWMSRENRVDWIILLRENNTIRKVGSVNVSQLNTDNPEIGILIGEFFLWGKHIGRHSVSLVLKWLKNIGYKKAHARILENNIRSIKLFESLGFKKTKKGRENEWIYEVNL | soluble |
| SNQEKLQRTMIHFNNPEVQAFLAVNTFTITGHGETKQLTEMLRSVLNQLAAVSLTSLRRLAEALPKQSVDGKAPLATGEDDDDDEVPGIMENFDEASKNEAN | soluble |
| SNRIYTLFLQRNPDFKGGVSIAGHSLGSLILFDILTNQKDSLGDIDSEKDSLNIVMDQGDTPTLEEDLKKLQLSEFFDIFEKEKVDKEALALCTDRDLQEIGIPLGPRKKILNYFSTRKNSMGIKRPAPQPASGANIPKESEFCSSSNTRNGDYLDVGIGQVSVKYPRLIYKPEIFFAFGSPIGMFLTVRGLKRIDPNYRFPTCKGFFNIYHPFDPVAYRIEPMVVPGVEFEPMLIPHHKGRKRMHLELREGLTRMSMDLKNNLLGSLRMAWKSFTRAPYPALQASETPEETEAEPESTSEKPSDVNTEETSVAVKEEVLPINVGMLNGGQRIDYVLQEKPIESFNEYLFALQSHLCYWESEDTVLLVLKEIYQTQGIFLDQPLQ | soluble |
| SNTPRLSLRTIEPTDYPELAELMDLVFPDVGGSWPRLTIMDLIHQFPDGQICIEDNGKIVGAALTIKVDYNRFSLPHLYTDIITENNVIQNQVTGDAMYGLDVFVHPDYRGLRLGRRLYDARKELCRSKNFKAILAGGRIPNYHQYADELSVAEYIDKVKRRELHDPILSFQLANDFDVKRIMRGYLP | not soluble |
| SPAPAATYERVVYKNPSEYHYMKVCLEFQDCGVGLNAAQFKQLLISAVKDLFGEVDAALPLDILTYEEKTLSAILRICSSGLVKLWSSLTLLGSYKGKKCAFRVIQVSPFLLALSGNSRELVLD | soluble |
| SPNSMSALKAVFQYIDENQDRYVKKLAEWVAIQSVSAWPEKRGEIRRMMEVAAADVQRLGGSVELVDIGKQKLPDGSEIPLPPILLGKLGSDPQKKTVCIYGHLDVQPAALEDGWDSEPFTLVEREGKLYGRGSTDDKGPVAGWMNALEAYQKTGQEIPVNLRFCLEGMEESGSEGLDELIFAQKDKFFKDVDYVCISDNYWLGKNKPCITYGLRGICYFFIEVECSDKDLHSGVYGGSVHEAMTDLISLMGCLVDKKGKILIPGINDAVAPVTDEEHALYDHIDFDMEEFAKDVGAETLLHSCKKDILMHRWRYPSLSLHGIEGAFSGSGAKTVIPRKVVGKFSIRLVPDMIPEVVSEQVSSYLSKKFAELQSPNKFKVYMGHGGKPWVSDFNHPHYQAGRRALKTVFGVEPDLTREGGSIPVTLTFQEATGKNVMLLPVGSADDGAHSQNEKLNRLNYIEGTKMLAAYLYEVSQLKN | soluble |
| SPSPWGWFAVTACGAQRNNFEEPVALQEMDTSNGVLLPFYDPDSSIVYLCGKGDSSIRYFEITDEPPFVHYLNTFSSKEPQRGMGFMPKRGLDVSKCEIARFYKLHERKCEPIIMTVPRKSDLFQDDLYPDTPGPEPALEADEWLSGQDAEPVLISLRDGYVPPKHRELRVTKRNILDVRPPSGPRRSQSASDAPLSQHTLETLLEEIKALRERVQAQEQRITALENMLCELVDGTD | soluble |
| SPTVEACGYSDRIIQITRGDSTITSQDVANAIVAYGVWPHYLSSKDASAIDKPSQPDTSSNRFYTLRSVTWSSSSKGWWWKLPDALKDMGIFGENMFYHYLGRSGYTIHVQCNASKFHQGTLIVALIPEHQIASALHGNVNVGYNYTHPGETGREVKAETRLNPDLQPTEEYWLNFDGTLLGNITIFPHQFINLRSNNSATIIAPYVNAVPMDSMRSHNNWSLVIIPICPLETSSAINTIPITISISPMCAEFSGARAKRQ | soluble |
| SPVSKCPKKSESLWKGWDRKAQRNGLRSQVYAVNGDYYVGEWEDNVKHGKGTQVWKKKGAIYEGDWKFGKRDGYGTLSLPDQQTGKCRRVYSGWWKGDKKSGYGIQFFGPKEYYEGDWCGSQRSGWGRMYYSNGDIYEGQWENDKPNGEGMLRLKNGNRYEGCWERGMKNGAGRFFHLDHGQLFEGFWVDNMAKCGTMIDFGRDEAPEPTQFPIPEVKILDPDGVLAEALAMFRKTEEGD | soluble |
| SQFKWSDFRILDRVSIGHGGRADELVFEAIVQVPDSPLFNQGVVLRKLNTTRAQRRGRRAIEVFKKLVRRRLLYHSYSMQVHGYITNNLSDDQYSFTLVHGCHGSFSIRHWLQQSDWIPTLEATLALDEESFRRVGDDTTGGPAVSRQLRLIRTLMRDILIGVNYLHSHGLAHTELRLENVHISPVDRHIKVGILGNAADFNGDVPSTSNAYSTMDRRQMMIAFDMRCVGFMMAKMVLQELMDPLIFAKLKSFLAKGNDPSSLREFFVTTLNTNSESGNTGVQILDRNWGAGWHLLSLLIATRPSERISCLDALKHPFLCGPRWRVAPSMDIIRWGLGSTAVKISEEYIYRMPQRQRLAHFIGLMEMLNPYPKPNCWLELLPGRWRLLYSTGKHIGLTLRQPSTRALIGNVHLTITRASESINNTSLSFTSDIRFTAITSKDWPHNKIGAAGKLQTLSQFRLIAGKRLYLKEEKKNIGKFSMGEPDAEEGLAEKLETEKWKKVVPFKEFPSSLPVAKLVSGEIEVTMNMNDHIDSPGSVIGEVRKQIPPEMFDLSKLVCGTYIDSRLLVLRCVNGSALLFTRSSLDHKSM | soluble |
| SQLTHINAAGEAHMVDVSAKAETVREARAEAFVTMRSETLAMIIDGRHHKGDVFATARIAGIQAAKRTWDLIPLCHPLMLSKVEVNLQAEPEHNRVRIETLCRLTGKTGVEMEALTAASVAALTIYDMCKAVQKDMVIGPVRLLAKSGGKSGDFKVEADD | not soluble |
| SQSPNPNNPAEYCSTIPPLQQAQASGALSSPPPTVMVPVGV | soluble |
| SQWIMHKTSTPEFCASCHSMSYPQQEWEGSSHFANAKGVRAQCSDCHIPKEGWHYVKAKFIALKDLWYEAQGKIENKEKYEAHRAEMAQRVWKDMKANDSETCRSCHSFDAMELSKQTKLAKQTHTEAQTNGQTCIDCHKGIVHFLPEVHGDQNTQKSSAVQGGTLSDGSAIFATEMVKATNDKGNEVRLMPYAELMQWKVDGDQIQGTLHGWQQVGAEAVVYQELGKRITLALMDEDARNHVQVLKIVHDAVTDSDWKEISVAVNVAKEKMTSDLTTLNQYGNQLNQTQCSGCHAAIGADHYTA | not soluble |
| SRGHDATSWINRCLDCFSEGLSFRRQSKRPKMKVHYGDKAKDYDYNARKKQQSEEIDRILDKLKKSGYNSLTTEEKKSLFDASKK | not soluble |
| SSAEAGGGIRKRHRTKFTAEQKERMLALAERIGWRIQRQDDEVIQRFCQETGVPRQVLKVWLHNNKH | soluble |
| SSCTIEKILTDAKTLLERLREHDAAAESLVDQSAALHRRVAAMREAGTALPDQYQEDASDMKDMSKYKPHILLSQENTQIRDLQQENRELWISLEEHQDALELIMSKYRKQMLQLMVAKKAVDAEPVLKAHQSHSAEIESQIDRICEMGEVMRKAVQVDDDQFCKIQEKLAQLELENKELRELLSISSESLQARKENSMDTASQAIK | soluble |
| SSEELLKQALQQAQQLLQQAQELAKKGGGEELLKQALQQAQQLLQQAQELAKKGGGGEELLKQALQQAQQLLQQAQELAKKGGGEELLKQALQQAQQLLQQAQELAKK | soluble |
| SSPGKPPRLVGGPMDASVEEEGVRRALDFAVGEYNKASNDMYHSRACQVVRARKQIVAGVNYFLDVELCRTTCTKTQPNLDNCPFHDQPHLKRKAFCSFQIYAVPWQGTMTLSKSTCQDA | soluble |
| SSRAKRIMKEIQAVKDDPAAHITLEFVSESDIHHLKGTFLGPPGTPYEGGKFVVDIEVPMEYPFKPPKMQFDTKVYHPNISSVTGAICLDILRNAWSPVITLKSALISLQALLQSPEPNDPQDAEVAQHYLRDRESFNKTAALWTRLYASETSNGQKGNVEESDLYGIDHDLIDEFESQGFEKDKIVEVLRRLGVKSLDPNDNNTANRIIEELLK | soluble |
| SSSSSDGGLFRSRPAHSLPPGEDGRVEPYVDFAEFYRLWSVDHGEQSVMTAP | soluble |
| SSTFEDADTEETVTCLQMTIYHPGQQSGIFKSIRFCSKEKFPSIEVVKFGRNSNMCQYTFQDKQVSRIQFVLQPFKQFNSSVLSFEIKNMSKKTSLMVDNQELGYLNKMDLPYKCMLRFGEYQFLLQKEDGESVESFETQFIMSSRPLLQENNWPTQNPIPEDGMYSSYFTHRSSPSEMDENEL | soluble |

From the DeepSol protein solubility set
